Measured values from the DeepSol protein solubility set.

Assay: soluble on expression in E. coli; label from the status in PepcDB or PDB records
In the case of “MKPAIKRACLLGTALFSLCASAAQAAGVLVGTWDLRGNGQLAAVYRDGANLQVVEGGSTRNYSFGNVVWSVFGATDTDGQPGAEILVKAGPDLVIVSHASTTQRKYPVGNVSWAIMRATDVDNVAGDEVILSIGNGVRTVFDRTRTQRDATFSYNGTWGLFDVADVDGAPGKELVLNMGNGVKVIDPRTSGAKDFTFSGYHALAQIADLDGQPGAEIIGRTSTGIYVISNASSRKEYSIGASAWALYGGTADTDGKPGNELIVVMQGKVRVIHHASGASSDYRIGDVNYSIDSVADMDGQPGAEILVRDANGKLFVINDRTGKVSS”, the “soluble on expression in E. coli” value is reported as “not soluble”. In the case of “MGSDKIHHHHHHLFDRYEAGETAVLVHIDFTDEGSREDLAELQLLVESAGARSVGVITGSRRAPDRKFFVGTGKAEELAAMVAATDANVVIFNHALSPAQERNLEHLCRCRVLDRTTLILDIFAQRARTHEGKLQVELAQLRHMSTRLVRGWTHLERQKGGIGLRGPGETQLETDRRLLRGRIKNINRRLEKVDKQREQSRRARQRSDMAAVSLVGYTNAGKSTLFNTLTSAEVYAADQLFATLDPTLRKLELPDGAAILADTVGFIRHLPHDLVAAFKATLQETREADLLLHVIDCADEKMRDNIEQVQAVLKEIDADEIPQLIVCNKIDLVEGIKPAIDRDDTGKPFRVWLSAQQNQGLDLLRQAVQELVGNVIAELTLKIPATAGHYLGQFYRLDAIQQKEYDDLGNCILSVRLPDADWRRLAKQSQGELETFIVDTATDRVVC”, the “soluble on expression in E. coli” value is reported as “not soluble”. In the case of “MGSDKIHHHHHHMDDTTPPETPAVDDLLQRIAGAYDTLPRQLKRIASYIDEHRSSVMMDRTSDIAQRCGVHPSAVVRFAQRFGFSGFSDLQAVFKDAYTGQNPTVQSYQQRIRSLIDGEAGPMTGGAVARQFIDASRAGLDELAAGLDDDQFDAAVTMLERAENIYVVGVRRSFPVASYIVYALQHTAKRVHLVSGLGGMYREQIRSVKKGDVVIAISFAPYGKETQYCLRAARHNHAQTLVVTDSRLSPLARDASAHLLVKEGSAFAFRSLTSTICLCQALFIALAYRLELNVEEVKDIGGYDD”, the “soluble on expression in E. coli” value is reported as “not soluble”. In the case of “MDRTRIVRRWRRNMDVADDAEYVEMLATLSEGSVRRNFNPYTDIDWESPEFAVTDNDPRWILPATDPLGRHPWYQAQSRERQIEIGMWRQANVAKVGLHFESILIRGLMNYTFWMPNGSPEYRYCLHESVEECNHTMMFQEMVNRVGADVPGLPRRLRWVSPLVPLVAGPLPVAFFIGVLAGEEPIDHTQKNVLREGKSLHPIMERVMSIHVAEEARHISFAHEYLRKRLPRLTRMQRFWISLYFPLTMRSLCNAIVVPPKAFWEEFDIPREVKKELFFGSPESRKWLCDMFADARMLAHDTGLMNPIARLVWRLCKIDGKPSRYRSEPQRQHLAAAPAA”, the “soluble on expression in E. coli” value is reported as “not soluble”. In the case of “MSVNGAFSPCVVIPCYNHGAMMASVLVRLAPLALPVFIVDDGSDAATQHVLNLLAAENDGVTLIRLANNSGKGAAVMRGIEAVAQAGFSHALQVDADGQHQIEDAPLLLDEAKTHPDCLISGRPRYDDSVPKSRLYGRYVTHVWVWIETLSLSIKDSMCGFRVYPVAATVSLLSRKSLGRRMDFDTEIMVRLYWAGTPSRFIETAVTYPENGLSHFDALHDNLRISWMHTRLFFGMLPRIPVLLMRQRQQHWAGVSERKGLLGMRFMLAVYQRLGRGVFTLFLWPVIAFYWLTGRTARKASQSWLRQIGEYAHQQDILLPKPLNSYHHFLRFGQAMLDKIASWRGDLHWGRDIDFAPGAQEAIEHGRQKGQLILASHLGDIEVCRALAPQVSGLVINALVFTENSQRFKQVLEEIAPQAGVNLIPVSNIGPDTAIMLQQKLDAGEWVAIVGDRTAVHRQRGGVRRVVWSPFLGKEAPFPQGPFVLAAALRCPVLLMFVIREQKKLRVYCEPFADSITLPRPTRQQALQQVVDRYAERLAHYALKSPLDWFNFFDFWSLPDDDGRTAGKKESLEHHHHHH”, the “soluble on expression in E. coli” value is reported as “not soluble”. For “MGSDKIHHHHHHMKMETGKLLMELSNLDGPSGYETNVVSYIKSVIEPFVDEAKTTRHGSLIGYKKGKGIGKLAFFAHVDEIGFVVSKVEGQFARLEPVGGVDPKVVYASKVRIYTKNGIERGVIGMLAPHLQDSESRKKVLTYDEIFVDLSLCERDVRVGDIAVIDQTAFETNGKVVGKALDNRASCGVLVKVLEFLKRYDHPWDVYVVFSVQEETGCLGALTGAYEINPDAAIVMDVTFASEPPFSDHIELGKGPVIGLGPVVDRNLVQKIIEIAKKHNVSLQEEAVGGRSGTETDFVQLVRNGVRTSLISIPLKYMHTPVEMVDPRDVEELARLLSLVAVELEV”, the “soluble on expression in E. coli” value was “not soluble”. In the case of “MAEASIEKTQILQKYLELDQRGRIIAEYVWIDGTGNLRSKGRTLKKRITSIDQLPEWNFDGSSTNQAPGHDSDIYLKPVAYYPDPFRRGDNIVVLAACYNNDGTPNKFNHRHEAAKLFAAHKDEEIWFGLEQEYTLFDMYDDVYGWPKGGYPAPQGPYYCGVGAGKVYARDMIEAHYRACLYAGLEISGINAEVMPSQWEFQVGPCTGIDMGDQLWMARYFLHRVAEEFGIKISFHPKPLKGDWNGAGCHANVSTKEMRQPGGTKYIEQAIEKLSKRHAEHIKLYGSDNDMRLTGRHETASMTAFSSGVANRGSSIRIPRSVAKEGYGYFEDRRPASNIDPYLVTGIMCETVCGAIDNADMTKEFERESS”, the “soluble on expression in E. coli” value is reported as “soluble”. For “MAHHHHHHMEKYKNILEKLEWYKNKSSEKYEFGIYEIDKREVFITTKYSYGFVNNKPLLPGHILLTTLKKKKHYNDLDIEEIIDINLLCNFMCYIMGNLFNTTDFSIAIQDGKEAGQTVDHVHIHIIPRKINDYKNNDNIYNDMNKINLGYGKNIICNSCNNTINVCSQNEIERNFKLEEFNTSIRSIEQMEEEANLIKSYINEKFSS”, the “soluble on expression in E. coli” value was “not soluble”. In the case of “MGSDKIHHHHHHMATTIKNRYEFVLFFDVENGNPNGDPDADNMPRIDPETSFGLVSDVCIKRKIRNYVALLKENEDDYQIYVQEKAVLNNQHKKAYEHFKIKPESKKLPKDTAQAEAITQFMCKNFYDIRTFGAVMTTEVNCGQVRGPVQLGFSRSLDPIVPQEITITRMAVTNERDLEKERTMGRKHIVNYALYRAEGFISAPLADKTGFSEEDLELLWDALINMFDHDRSAARGKMSSRKLYVFKHDSKLGNAPASILFDAITVKKINGNKPVRNFSDYEISVTGNEIPQGVEVLELL”, the “soluble on expression in E. coli” value is reported as “not soluble”. With “IDKITYPTRIGAVVFPHKKHQDALGECRGCHEKGPGRIDGFDKVMAHGKGCKGCHEEMKIGPVRCGDCHKGGSTH” the “soluble on expression in E. coli” value was “soluble”. For “MGSDKIHHHHHHMLTKERTLQYFHEYFSEWIEIYKRGAVRPVTYQKYLMTLQRLTELSPNLKICELDKRKYQTLLNDYAKTHERQTTMDFHHHLKSAILDAMDEGLLTIDPTRKVIIKGKPVSDKKNKFLSQFELQSLLKSLNLTDKPNWDWFILLVAKTGLRFSEALALTPKDFDFECQKVKISKTWNYKNAEGGFGETKNLSSKRTIQIDIQLNTQIERLSKDLADDEPIFVQGRVFNSTVNNRLKVLCKKAGVPIISAHCLRHTHASLLIFAGVSIASIAKRLGHSSISTTQETYLHIIKELESQDNDKIMSHLSMITQ”, the “soluble on expression in E. coli” value was “not soluble”. For “MSASLAILTIGVVPMSEVLPLLTEYIDEQHITHHSLLGKMSREDVMADYAVEPGDDPLLTLLNDNQIAHVSRQKVERDLQSVVEVLDNQGYDVIILMSTAAIKSMAARNSILLEPLRIIPPLVASIVDGHQVGVIVPVAELLAAQEKKWQVLQMPPVYSLANPVHGSEQQLIDAGQALLDQGADVIMLDCLGFHQRHRDILQQALDVPVLLSNVLIARLASELLV”, the “soluble on expression in E. coli” value was “not soluble”. In the case of “GSAGKFIVIFKNDVSEDKIRETKDEVIAEGGTITNEYNMPGMKGFAGELTPQSLTKFQGLQGDLIDSIEEDGIVTTQ”, the “soluble on expression in E. coli” value is reported as “soluble”. For “GPGSMDVVATPLWSSPPCGSPMAGTVSSGNPLFHVGRSYYRSAAKAYNMTRYVVESLKLDETVLATSMAYWHTFVDRLELRKFDEIVLSASCVFLASKVEHYKVRLNRVIALVFEISGEGDEMEGWRRMLLEMELLVCHTLGFNFQIIHPMKRIVELVPEDHTQVLECAHRLFLLSFMTPLCVRVPADEVAEALVYLAADGAGQLEPYAGKFRCDAVERREGIINVMIDALAVMRKNTSLPKVDDMIVARRKRMREQESFRPSVAHSSGGTGSLDVTPSAFLVE”, the “soluble on expression in E. coli” value was “soluble”. With “MSLKEKKLVYLNSKQYEDAYRKKSVLLNDINNINEQYFDLKNSIKDYNKSSKDFESTKRQMEDELILNKMELGTLDVVGEGVEITLDDSGNQVSASSEDANFREIRTIYQVIHDFDMRAVINDIKCSGAEAISINGQRIVSNTEIYCNAEFLLINGVKISAPFNIKAIGNKNKLKTYMLASGNYLQRLKRRSIYVNLKTVNDVKIPAFKGELRHSNIKSKEGHHHHHH” the “soluble on expression in E. coli” value was “soluble”. With “DIPFYEQVKASAGHGFLCECKNVTYISLPKALFKYFNVKDLLAITAHGDSMEPVLNDDALLVIDSSKKQIRDGSMYVIRQGDLIRVKLISLDNNGLKLKSYNQSYHDEIYEDYQDVEILGKVIWYSSLCL” the “soluble on expression in E. coli” value was “not soluble”. For “MNNIPVEIRLLKNRTVLVLTYGDEPKNLPAEFLRVYSPSAEVRGHGVGQDVLQTGKADVQIADLQPVGQYALKISFSDGHDSGLYDWAYLHRLAYGYDAMWQEYLDKLAAAGASRFEEK”, the “soluble on expression in E. coli” value was “not soluble”. For “MSLAQGIIENHLSKRSALLEQEKTSRHDYAFKQSMSPVAKTAAKVLADIRKKELKSIWSPTTTSNEKRDLKDVTFPGMSFTLSRDRMQKTALWKIVSAMPKGCLLHAHMEAMIDIDWMIEQAIELPGYYISSPVPLCPRTGSAGKWSEPFQFSYRPRLGSGANARNGSEPEISIWQAGYTPGRLVPVAAAAKMYPGGVEAFKAWAVSRMTINEEEALEHHHGIDDVWDKFRSCFLAIGGLFFTEPIFRRCIPRLLQQLHDDGIKYVELRLAPNPFYREGSNEAEPDFLYFLQCFQEEVDAYMSSPTGRGFWGAKIIWTAIRSFPDDLIKESMIHCLNSKKAYPSVITGFDFVGQEDAGRPLVDLLPLCKWFQQQCADEQLQIPFFLHAGECLGDGNDTDSNLVDAILLNSRRIGHAFSLYKHPLLIDLVKDKNILIEMCPISHEVLRLTSNILMHPMPALQARGVAVSLNNDDPAVLGHGKNGLSHDFYQVTAAFENTGLAGLATMAEDSIRWAAFEDETDSEWLQGIDGKGNGLKASRLAEWRTAFDEWCAWVVQEFGAESQIEGHHHHHH”, the “soluble on expression in E. coli” value was “soluble”. In the case of “MDFKAKLLAEMAKKRKAVSGMEVKEGNAKFVKGADLEMKRNQEYERKQQEIASKKRKVDDEILQESSSRTKPAPVENESEIDEKTPMSEIQTRLRQRNHPIMLFGETDIDVRKRLHQLELAQPDLNEGWENELQTAMKVIGKEMDKAVVEGTADSATRHDIALPQGYEEDNWKNIEHNSTLLSVDDDLKRDCDIILSICRYILARWAKDLNDRPLDVKKTAQGMHEAAHHKQTMMHLKSLMTSMERYNCNNDIRHHLAKICRLLVIDRNYLEANNAYMEMAIGNAPWPVGVTRSGIHQRPGSAKSYVSNIAHVLNDETQRKYIQAFKRLMTKMQEYFPTDPSKSVEFVKKAV”, the “soluble on expression in E. coli” value is reported as “not soluble”. In the case of “MSLKNTFVYQAEKPVIKLLQITDPHLFKDESAELLGVNTQASFAQVLKEIQQENNEFDVILATGDLVQDSSDEGYIRFVEMMKPFNKPVFWIPGNHDFQPKMAEFLNQPPMNAAKHLLLGEHWQALLLDSQVYGVPHGQLSQHQLDLLKETLGKNPERYTLVVLHHHLLPTNSAWLDQHNLRNSHELAEVLAPFTNVKAILYGHIHQEVNSEWNGYQVMATPATCIQFKPDCQYFSLDTLQPGWREIELHSDGSIRTEVKRIQQAEFFPNMQEEGYEGGSHHHHHH”, the “soluble on expression in E. coli” value is reported as “soluble”.
